Test results as given in US20250026805A1 (DUCENTIS BIOTHERAPEUTICS, published 2025).
Substitutions are numbered along the chain they refer to. Numbers in names are those of the source.

T1: Recombinant Human CD200R, His tagged (human, UniProt Q8TD46 27-266, limits assumed)
T1 construct: Bought reagent; Flowed in solution as the analyte in the SPR; also called human CD200 receptor; CD200 receptor; not shown: His tag
T1 sequence (looked up): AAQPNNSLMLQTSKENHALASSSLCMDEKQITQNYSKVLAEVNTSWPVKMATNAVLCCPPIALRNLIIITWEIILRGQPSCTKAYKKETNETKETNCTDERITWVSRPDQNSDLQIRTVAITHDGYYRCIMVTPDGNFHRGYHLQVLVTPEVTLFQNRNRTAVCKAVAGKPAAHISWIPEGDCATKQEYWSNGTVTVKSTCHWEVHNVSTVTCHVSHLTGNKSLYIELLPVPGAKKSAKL

B1: DS-150 mutant CD200-Fc fusion protein (K130F, I131F, IgG2 Fc) (Fc fusion)
chain: QVQVVTQDEREQLYTPASLKCSLQNAQEALIVTWQKKKAVSPENMVTFSENHGVVIQPAYKDKINITQLGLQNSTITFWNITLEDEGCYMCLFNTFGFGFFSGTACLTVYVQPIVSLHYKFSEDHLNITCSATARPAPMVFWKVPRSGIENSTVTLSHPNGTTSVTSILHIKDPKNQVGKEVICQVLHLGTVTDFKQTVNKGERKCCVECPPCPAPPVAGPSVFLFPPKPKDTLMISRTPEVTCVVVDVSHEDPEVQFNWYVDGVEVHNAKTKPREEQFNSTFRVVSVLTVVHQDWLNGKEYKCKVSNKGLPAPIEKTISKTKGQPREPQVYTLPPSREEMTKNQVSLTCLVKGFYPSDISVEWESNGQPENNYKTTPPMLDSDGSFFLYSKLTVDKSRWQQGNVFSCSVMHEALHNHYTQKSLSLSPGK
notes: Purified as the dimeric form
B2: DS-161 mutant CD200-Fc fusion protein (K130F, IgG2 Fc) (Fc fusion)
chain: B1 chain with F101I
notes: Purified as the dimeric form
B3: DS-149 mutant CD200-Fc fusion protein (K130Y, I131F, IgG2 Fc) (Fc fusion)
chain: B1 chain with F100Y
notes: Purified as the dimeric form
B4: DS-162 mutant CD200-Fc fusion protein (I131F, IgG2 Fc) (Fc fusion)
chain: B1 chain with F100K
notes: Purified as the dimeric form
B5: DS-151 mutant CD200-Fc fusion protein (K130F, I131Y, IgG2 Fc) (Fc fusion)
chain: B1 chain with F101Y
notes: Purified as the dimeric form

Columns and labels:
[1] = target: T1, Recombinant Human CD200R, His tagged; assay: SPR (Biacore T200), CD200-Fc captured on anti-human Fc, His-tagged CD200R flowed over it, 25 C, 1:1 Langmuir model
Protocol: (§1) Anti-human Fc was covalently immobilized on a BIAcore CM5 sensor chip by amine coupling using a GE Healthcare kit following the manufacturer's instructions. Maximum immobilization target was set between 10000-15000 RU. Flow cell 1 was used as a reference, with no immobilized ligand, to permit deduction of non-specific binding to the chip surface. The Fc-ligands were diluted to 0.5 μg/mL in BIAcore running buffer (HBS-EP+: 10 mM HEPES buffered saline containing 2 mM EDTA and 0.05% surfactant P-20). In the final immobilization step, wild-type CD200-Fc, mutant CD200-Fc and un-related control protein (Herceptin/Trastuzumab) were passed over the chip (using flow cells 2, 3 and 4 respectively), for 120 seconds, at a concentration giving rise to a minimum of 250 response units (RU), followed by stabilization of the surface for 120 seconds in running buffer. The CD200-Fc capture procedure was repeated for every CD200R concentration.
(§2) Following capture of the Fc-tagged proteins, CD200R (at different concentrations) was flowed over the captured CD200-Fc and control proteins for 120 seconds (to observe association), followed by 120 seconds of running buffer (to observe dissociation). The chip surface was then regenerated using 10 mM Glycine-HCl (pH 2) for 30 seconds (30 μl/min flow rate) followed by stabilization of the surface for 60 seconds with BIAcore running buffer before the next cycle. All CD200R concentrations were run in duplicate at the following concentrations: 1 μM, 500 nM, 250 nM, 125 nM, 62.5 nM, 31.25 nM, 15.6 nM and 0 nM.
(§3) The results were represented in sensorgrams plotted as response or resonance units (Rus) versus time. The experimental sensorgrams were analyzed in BIAevaluation software version 1.0 (GE Healthcare). […] Rate equations using standard parameters (e.g. ligand concentration, time) were used for iterative curve fitting. Closeness of fit was determined by algorithms provided by the manufacturer in the BIAevaluation software version 1.0.

[2] = target: T1, Recombinant Human CD200R, His tagged; assay: SPR (Biacore T200), CD200-Fc captured on anti-human Fc, His-tagged CD200R flowed over it, 25 C, 1:1 binding model
Protocol: as §1, §2, §3

[3] = target: T1, Recombinant Human CD200R, His tagged; assay: SPR (Biacore T200), CD200-Fc captured on anti-human Fc, His-tagged CD200R flowed over it, 25 C, two state binding model
Protocol: as §1, with “concentration. […]” for “concentration.”
(§4) The results were represented in sensorgrams plotted as response or resonance units (Rus) versus time. The experimental sensorgrams were analyzed in BIAevaluation software version 1.0 (GE Healthcare). […] Closeness of fit was determined by algorithms provided by the manufacturer in the BIAevaluation software version 1.0.

[4] = target: T1, Recombinant Human CD200R, His tagged; assay: SPR (BIAcore T200, 25 C): CD200-Fc captured through anti-human Fc on a CM5 chip, His-tagged human CD200R flowed over it. Sensorgrams fitted with the 2 site (two state) binding model. Table 4 of the text gives 3.0 nM for this fit.
Protocol: as §1, with “concentration. […]” for “concentration.”
as §4

| Molecule | Kd [1] [nM] | koff [1] [s⁻¹] | kon [1] [M⁻¹ s⁻¹] | t½ [1] [min] | Kd [2] [nM] | koff [2] [s⁻¹] | kon [2] [M⁻¹ s⁻¹] | t½ [2] [min] | Kd [3] [nM] | Kd [4] [nM] |
| --- | --- | --- | --- | --- | --- | --- | --- | --- | --- | --- |
| DS-155 wild-type CD200-Fc fusion protein (IgG4 S228P Fc) | 50 | 0.0251 | 543000 | 0.467 | – | – | – | – | – | – |
| B1 | 2.6 | 0.000226 | 87500 | 51.2 | – | – | – | – | – | – |
| B2 | 0.7 | 0.000593 | 838000 | 19.5 | – | – | – | – | – | – |
| B3 | 1.9 | 0.000229 | 132000 | 50.5 | – | – | – | – | – | – |
| B4 | – | – | – | – | 3 | 0.00474 | 1.9e+06 | 2.43 | 3 | 3.1 |
| B5 | 1.4 | 0.000181 | 128000 | 63.8 | – | – | – | – | – | – |
